Target: cellular receptor for the apoE peptide (not named), on cells
Experiment: competition binding on cells (250,000 cells per well, 4 C); competitor/tracer biotinylated apoE 133-149, detected with 125I-streptavidin

IC50: 4 µM
Binder: LRVRLASHLRKLRKRLL [COG133 (apoE 133-149 peptide), unlabeled]

From patent publication US20110306550A1
